Reference: patent US20210032299A1 (Eli Lilly, published 2021)
Starred links: 1 amine or outer side, 2 acyl side, 3 side chain; linkers in the order of their positions; H or OH if unused. Non-standard residues stand in square brackets, D forms with d. Groups on a side chain read outwards from the residue. No end group written: not given here. *: point of attachment. C20 diacid = O=C(O)CCCCCCCCCCCCCCCCCCC(=O)*; αMePhe(2-F) = C[C@](N)(Cc1ccccc1F)C(=O)O; γGlu = O=C(O)[C@H](CCC(=O)[*:2])N[*:1]; 4Pal = N[C@@H](Cc1ccncc1)C(=O)O; αMeL = CC(C)C[C@](C)(N)C(=O)O; AEEA = NCCOCCOCC(=O)O; Aib = CC(C)(N)C(=O)O

T1: human glucose-dependent insulinotropic peptide receptor (human, UniProt P48546 22-466)
T1 sequence (looked up): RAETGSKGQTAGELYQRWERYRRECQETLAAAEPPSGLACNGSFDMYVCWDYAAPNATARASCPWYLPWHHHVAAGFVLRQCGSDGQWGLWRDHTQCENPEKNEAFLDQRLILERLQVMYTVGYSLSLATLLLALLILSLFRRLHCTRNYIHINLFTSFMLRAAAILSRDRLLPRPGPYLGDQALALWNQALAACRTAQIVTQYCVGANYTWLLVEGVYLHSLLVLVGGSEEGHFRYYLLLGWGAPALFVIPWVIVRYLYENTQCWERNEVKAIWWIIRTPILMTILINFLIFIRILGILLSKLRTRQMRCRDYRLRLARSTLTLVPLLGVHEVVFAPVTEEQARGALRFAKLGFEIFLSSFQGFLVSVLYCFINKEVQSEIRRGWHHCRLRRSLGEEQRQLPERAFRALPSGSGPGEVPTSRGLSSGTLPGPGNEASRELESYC


How the values were obtained:
Test in all cases: cell-based or functional assay
human glucagon receptor = human glucagon receptor (human, UniProt P47871 26-477)
human glucagon receptor, sequence (P47871 26-477): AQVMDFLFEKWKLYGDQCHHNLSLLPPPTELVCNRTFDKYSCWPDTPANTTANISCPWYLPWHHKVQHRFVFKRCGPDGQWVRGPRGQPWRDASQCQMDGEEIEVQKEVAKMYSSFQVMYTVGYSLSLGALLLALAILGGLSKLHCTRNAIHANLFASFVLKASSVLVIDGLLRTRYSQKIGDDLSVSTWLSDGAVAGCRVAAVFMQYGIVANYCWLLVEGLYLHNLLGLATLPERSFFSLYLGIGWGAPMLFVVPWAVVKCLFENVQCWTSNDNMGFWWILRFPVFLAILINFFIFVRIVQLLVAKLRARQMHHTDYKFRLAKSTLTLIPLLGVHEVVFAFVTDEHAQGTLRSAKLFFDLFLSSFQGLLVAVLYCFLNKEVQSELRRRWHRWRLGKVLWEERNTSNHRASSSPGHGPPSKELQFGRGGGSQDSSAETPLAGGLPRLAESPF

[1] = target: T1, human glucose-dependent insulinotropic …
human GLP-1 receptor = human GLP-1 receptor (human, UniProt P43220 24-463)

Binder | hGcgR cAMP Rel EC50 (human glucagon receptor) | hGIPR cAMP Rel EC50 [1] | hGLP1R cAMP Rel EC50 (human GLP-1 receptor)
Y[Aib]EGT[αMeL]ISDYSIALDKK([AEEA-AEEA-γGlu-C20 diacid])HQ[Aib]EFVNYLLATGPSSGAPPPS-NH2 (N-terminus assumed; SMILES CC[C@H](C)[C@H](NC(=O)[C@H](CO)NC(=O)[C@H](Cc1ccc(O)cc1)NC(=O)[C@H](CC(=O)O)NC(=O)[C@H](CO)NC(=O)[C@@H](NC(=O)[C@](C)(CC(C)C)NC(=O)[C@@H](NC(=O)CNC(=O)[C@H](CCC(=O)O)NC(=O)C(C)(C)NC(=O)[C@@H](N)Cc1ccc(O)cc1)[C@@H](C)O)[C@@H](C)CC)C(=O)N[C@@H](C)C(=O)N[C@@H](CC(C)C)C(=O)N[C@@H](CC(=O)O)C(=O)N[C@@H](CCCCN)C(=O)N[C@@H](CCCCNC(=O)COCCOCCNC(=O)COCCOCCNC(=O)CC[C@H](NC(=O)CCCCCCCCCCCCCCCCCCC(=O)O)C(=O)O)C(=O)N[C@@H](Cc1c[nH]cn1)C(=O)N[C@@H](CCC(N)=O)C(=O)NC(C)(C)C(=O)N[C@@H](CCC(=O)O)C(=O)N[C@@H](Cc1ccccc1)C(=O)N[C@H](C(=O)N[C@@H](CC(N)=O)C(=O)N[C@@H](Cc1ccc(O)cc1)C(=O)N[C@@H](CC(C)C)C(=O)N[C@@H](CC(C)C)C(=O)N[C@@H](C)C(=O)N[C@H](C(=O)NCC(=O)N1CCC[C@H]1C(=O)N[C@@H](CO)C(=O)N[C@@H](CO)C(=O)NCC(=O)N[C@@H](C)C(=O)N1CCC[C@H]1C(=O)N1CCC[C@H]1C(=O)N1CCC[C@H]1C(=O)N[C@@H](CO)C(N)=O)[C@@H](C)O)C(C)C) [Example 35] | > 5000 nM | 0.0125 nM | > 5000 nM
Y[Aib]EGT[αMePhe(2-F)]ISDYSIALDKK([AEEA-AEEA-γGlu-C20 diacid])HQ[Aib]DFVE[4Pal]LLEGGPSSGAPPPS-NH2 (N-terminus assumed; SMILES CC[C@H](C)[C@H](NC(=O)[C@H](CO)NC(=O)[C@H](Cc1ccc(O)cc1)NC(=O)[C@H](CC(=O)O)NC(=O)[C@H](CO)NC(=O)[C@@H](NC(=O)[C@](C)(Cc1ccccc1F)NC(=O)[C@@H](NC(=O)CNC(=O)[C@H](CCC(=O)O)NC(=O)C(C)(C)NC(=O)[C@@H](N)Cc1ccc(O)cc1)[C@@H](C)O)[C@@H](C)CC)C(=O)N[C@@H](C)C(=O)N[C@@H](CC(C)C)C(=O)N[C@@H](CC(=O)O)C(=O)N[C@@H](CCCCN)C(=O)N[C@@H](CCCCNC(=O)COCCOCCNC(=O)COCCOCCNC(=O)CC[C@H](NC(=O)CCCCCCCCCCCCCCCCCCC(=O)O)C(=O)O)C(=O)N[C@@H](Cc1c[nH]cn1)C(=O)N[C@@H](CCC(N)=O)C(=O)NC(C)(C)C(=O)N[C@@H](CC(=O)O)C(=O)N[C@@H](Cc1ccccc1)C(=O)N[C@H](C(=O)N[C@@H](CCC(=O)O)C(=O)N[C@@H](Cc1ccncc1)C(=O)N[C@@H](CC(C)C)C(=O)N[C@@H](CC(C)C)C(=O)N[C@@H](CCC(=O)O)C(=O)NCC(=O)NCC(=O)N1CCC[C@H]1C(=O)N[C@@H](CO)C(=O)N[C@@H](CO)C(=O)NCC(=O)N[C@@H](C)C(=O)N1CCC[C@H]1C(=O)N1CCC[C@H]1C(=O)N1CCC[C@H]1C(=O)N[C@@H](CO)C(N)=O)C(C)C) [Example 39] | > 5000 nM | 0.0112 nM | 3330 nM
Y[Aib]EGT[αMePhe(2-F)]ISDYSIALDKK([AEEA-AEEA-γGlu-C20 diacid])HQ[Aib]DFVEYLLEGGPSSGAPPPS-NH2 (N-terminus assumed; SMILES CC[C@H](C)[C@H](NC(=O)[C@H](CO)NC(=O)[C@H](Cc1ccc(O)cc1)NC(=O)[C@H](CC(=O)O)NC(=O)[C@H](CO)NC(=O)[C@@H](NC(=O)[C@](C)(Cc1ccccc1F)NC(=O)[C@@H](NC(=O)CNC(=O)[C@H](CCC(=O)O)NC(=O)C(C)(C)NC(=O)[C@@H](N)Cc1ccc(O)cc1)[C@@H](C)O)[C@@H](C)CC)C(=O)N[C@@H](C)C(=O)N[C@@H](CC(C)C)C(=O)N[C@@H](CC(=O)O)C(=O)N[C@@H](CCCCN)C(=O)N[C@@H](CCCCNC(=O)COCCOCCNC(=O)COCCOCCNC(=O)CC[C@H](NC(=O)CCCCCCCCCCCCCCCCCCC(=O)O)C(=O)O)C(=O)N[C@@H](Cc1c[nH]cn1)C(=O)N[C@@H](CCC(N)=O)C(=O)NC(C)(C)C(=O)N[C@@H](CC(=O)O)C(=O)N[C@@H](Cc1ccccc1)C(=O)N[C@H](C(=O)N[C@@H](CCC(=O)O)C(=O)N[C@@H](Cc1ccc(O)cc1)C(=O)N[C@@H](CC(C)C)C(=O)N[C@@H](CC(C)C)C(=O)N[C@@H](CCC(=O)O)C(=O)NCC(=O)NCC(=O)N1CCC[C@H]1C(=O)N[C@@H](CO)C(=O)N[C@@H](CO)C(=O)NCC(=O)N[C@@H](C)C(=O)N1CCC[C@H]1C(=O)N1CCC[C@H]1C(=O)N1CCC[C@H]1C(=O)N[C@@H](CO)C(N)=O)C(C)C) [Example 37] | > 5000 nM | 0.036 nM | 61.1 nM
Y[Aib]EGT[αMePhe(2-F)]ISDYSIALDKK([AEEA-AEEA-γGlu-C20 diacid])HQ[Aib]DFVE[4Pal]LLETGPSSGAPPPS-NH2 (N-terminus assumed; SMILES CC[C@H](C)[C@H](NC(=O)[C@H](CO)NC(=O)[C@H](Cc1ccc(O)cc1)NC(=O)[C@H](CC(=O)O)NC(=O)[C@H](CO)NC(=O)[C@@H](NC(=O)[C@](C)(Cc1ccccc1F)NC(=O)[C@@H](NC(=O)CNC(=O)[C@H](CCC(=O)O)NC(=O)C(C)(C)NC(=O)[C@@H](N)Cc1ccc(O)cc1)[C@@H](C)O)[C@@H](C)CC)C(=O)N[C@@H](C)C(=O)N[C@@H](CC(C)C)C(=O)N[C@@H](CC(=O)O)C(=O)N[C@@H](CCCCN)C(=O)N[C@@H](CCCCNC(=O)COCCOCCNC(=O)COCCOCCNC(=O)CC[C@H](NC(=O)CCCCCCCCCCCCCCCCCCC(=O)O)C(=O)O)C(=O)N[C@@H](Cc1c[nH]cn1)C(=O)N[C@@H](CCC(N)=O)C(=O)NC(C)(C)C(=O)N[C@@H](CC(=O)O)C(=O)N[C@@H](Cc1ccccc1)C(=O)N[C@H](C(=O)N[C@@H](CCC(=O)O)C(=O)N[C@@H](Cc1ccncc1)C(=O)N[C@@H](CC(C)C)C(=O)N[C@@H](CC(C)C)C(=O)N[C@@H](CCC(=O)O)C(=O)N[C@H](C(=O)NCC(=O)N1CCC[C@H]1C(=O)N[C@@H](CO)C(=O)N[C@@H](CO)C(=O)NCC(=O)N[C@@H](C)C(=O)N1CCC[C@H]1C(=O)N1CCC[C@H]1C(=O)N1CCC[C@H]1C(=O)N[C@@H](CO)C(N)=O)[C@@H](C)O)C(C)C) [Example 38] | > 5000 nM | 0.0368 nM | 1390 nM
Y[Aib]EGT[αMePhe(2-F)]ISDYSIALDKK([AEEA-AEEA-γGlu-C20 diacid])HQ[Aib]EFVNYLLATGPSSGAPPPS-NH2 (N-terminus assumed; SMILES CC[C@H](C)[C@H](NC(=O)[C@H](CO)NC(=O)[C@H](Cc1ccc(O)cc1)NC(=O)[C@H](CC(=O)O)NC(=O)[C@H](CO)NC(=O)[C@@H](NC(=O)[C@](C)(Cc1ccccc1F)NC(=O)[C@@H](NC(=O)CNC(=O)[C@H](CCC(=O)O)NC(=O)C(C)(C)NC(=O)[C@@H](N)Cc1ccc(O)cc1)[C@@H](C)O)[C@@H](C)CC)C(=O)N[C@@H](C)C(=O)N[C@@H](CC(C)C)C(=O)N[C@@H](CC(=O)O)C(=O)N[C@@H](CCCCN)C(=O)N[C@@H](CCCCNC(=O)COCCOCCNC(=O)COCCOCCNC(=O)CC[C@H](NC(=O)CCCCCCCCCCCCCCCCCCC(=O)O)C(=O)O)C(=O)N[C@@H](Cc1c[nH]cn1)C(=O)N[C@@H](CCC(N)=O)C(=O)NC(C)(C)C(=O)N[C@@H](CCC(=O)O)C(=O)N[C@@H](Cc1ccccc1)C(=O)N[C@H](C(=O)N[C@@H](CC(N)=O)C(=O)N[C@@H](Cc1ccc(O)cc1)C(=O)N[C@@H](CC(C)C)C(=O)N[C@@H](CC(C)C)C(=O)N[C@@H](C)C(=O)N[C@H](C(=O)NCC(=O)N1CCC[C@H]1C(=O)N[C@@H](CO)C(=O)N[C@@H](CO)C(=O)NCC(=O)N[C@@H](C)C(=O)N1CCC[C@H]1C(=O)N1CCC[C@H]1C(=O)N1CCC[C@H]1C(=O)N[C@@H](CO)C(N)=O)[C@@H](C)O)C(C)C) [Example 34] | 913 nM | 0.0177 nM | 462 nM
Y[Aib]EGT[αMePhe(2-F)]ISDYSIALDKK([AEEA-AEEA-γGlu-C20 diacid])HQ[Aib]DFVEYLLETGPSSGAPPPS-NH2 (N-terminus assumed; SMILES CC[C@H](C)[C@H](NC(=O)[C@H](CO)NC(=O)[C@H](Cc1ccc(O)cc1)NC(=O)[C@H](CC(=O)O)NC(=O)[C@H](CO)NC(=O)[C@@H](NC(=O)[C@](C)(Cc1ccccc1F)NC(=O)[C@@H](NC(=O)CNC(=O)[C@H](CCC(=O)O)NC(=O)C(C)(C)NC(=O)[C@@H](N)Cc1ccc(O)cc1)[C@@H](C)O)[C@@H](C)CC)C(=O)N[C@@H](C)C(=O)N[C@@H](CC(C)C)C(=O)N[C@@H](CC(=O)O)C(=O)N[C@@H](CCCCN)C(=O)N[C@@H](CCCCNC(=O)COCCOCCNC(=O)COCCOCCNC(=O)CC[C@H](NC(=O)CCCCCCCCCCCCCCCCCCC(=O)O)C(=O)O)C(=O)N[C@@H](Cc1c[nH]cn1)C(=O)N[C@@H](CCC(N)=O)C(=O)NC(C)(C)C(=O)N[C@@H](CC(=O)O)C(=O)N[C@@H](Cc1ccccc1)C(=O)N[C@H](C(=O)N[C@@H](CCC(=O)O)C(=O)N[C@@H](Cc1ccc(O)cc1)C(=O)N[C@@H](CC(C)C)C(=O)N[C@@H](CC(C)C)C(=O)N[C@@H](CCC(=O)O)C(=O)N[C@H](C(=O)NCC(=O)N1CCC[C@H]1C(=O)N[C@@H](CO)C(=O)N[C@@H](CO)C(=O)NCC(=O)N[C@@H](C)C(=O)N1CCC[C@H]1C(=O)N1CCC[C@H]1C(=O)N1CCC[C@H]1C(=O)N[C@@H](CO)C(N)=O)[C@@H](C)O)C(C)C) [Example 36] | > 5000 nM | 0.0543 nM | 1080 nM
